The text below walks through data of patent publication US20160015827A1.

The target of assay [1] is human folate receptor alpha (FRA) (human) (UniProt P15328). The assay is described as follows: flow cytometry on SK-OV-3 cells, secondary antibody alone (background). On the technique in general: A flow cytometer gives signals particle by particle.
For assay [2] the target is unchanged. The assay can be described thus: flow cytometry on OVCAR-3B cells, secondary antibody alone (background).
Assay [3] has the same target. The assay can be described thus: flow cytometry on NCI-H2110 cells, secondary antibody alone (background).
Assay [4] has the same target. The assay is described as follows: flow cytometry on NCI-H292 cells, secondary antibody alone (background).
Assay [5] shares this target. The assay can be described thus: flow cytometry on NCI-H2110 cells, 10 µg/mL.
For assay [6] the target is unchanged. The assay is described as follows: flow cytometry on OVCAR-3 cells, 10 µg/mL.
Assay [7] has the same target. The assay is described as follows: flow cytometry on SK-OV-3 cells, 10 µg/mL.
For assay [8] the target is unchanged. The assay can be described thus: flow cytometry on NCI-H292 cells, 10 µg/mL.

Where “and” joins values, the source holds several entries; their conditions need not be identical. Identical values can stand only once.

Sequence of human folate receptor alpha (FRA) (human) (P15328 25-234 limits assumed): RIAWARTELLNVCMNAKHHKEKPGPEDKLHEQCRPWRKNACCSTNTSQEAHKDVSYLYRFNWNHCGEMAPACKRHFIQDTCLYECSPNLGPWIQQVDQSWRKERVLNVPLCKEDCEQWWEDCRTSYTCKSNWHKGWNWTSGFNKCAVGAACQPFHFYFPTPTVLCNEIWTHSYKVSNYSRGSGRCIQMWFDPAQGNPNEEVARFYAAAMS

Regarding “goat F(ab')2-anti-human IgG (H+L)-RPE or goat anti-human IgG-RPE (antibody)”, the MFI was 6 MFI and 5 MFI in assay [1]; 5 MFI in assay [2]; 5 MFI in assay [3]; 6 MFI in assay [4].

Take isotype control antibody human IgG: the MFI in assay [5] came out at 5 MFI; in assay [6], 7 MFI; in assay [7], 6 MFI; in assay [8] it was 6 MFI.
